Laboratory results: US20260242478A1 (published 2026)
Where no end group is shown, it is not given here.

B1: Phage-2410 (peptide)
peptide: MHHWCIPAWMCSTE
B2: Phage-2420 (peptide)
peptide: EIKWCIPSWMCNTL
modifications: cysteine pairing not given here; also: displayed as fusion to phage pIII
B3: Phage-2474 (peptide, not shown: large carriers)
peptide: DFHMCTPRWMCEGM
modifications: cysteine pairing not given here; also: displayed on phage as fusion to pIII, pIII and linker sequence not given here
notes: Clonal phage of the Peptide-180 optimisation library, tested as crude supernatant
B4: Phage-2470 (peptide, not shown: large carriers)
peptide: VDKLCRPAWMCVAS
modifications: cysteine pairing not given here; also: displayed as fusion to phage pIII
notes: as for B3
B5: Phage-2419 (peptide)
peptide: VAKWCIPSWMCETV
modifications: cysteine pairing not given here; also: displayed as fusion to phage pIII
B6: Phage-2417 (peptide)
peptide: FDPWCIPLWMCEGM
modifications: cysteine pairing not given here; also: displayed on bacteriophage by fusion to pIII
B7: Phage-2481 (peptide, not shown: large carriers)
peptide: WSNWCIPPWMCAMN
modifications: cysteine pairing not given here; also: displayed on phage as fusion to pIII, pIII and linker sequence not given here
notes: as for B3
B8: Phage-2416 (peptide)
peptide: SERWCIPQWMCTAP
modifications: cysteine pairing not given here; also: displayed on bacteriophage by fusion to pIII
B9: Phage-2471 (peptide, not shown: large carriers)
peptide: MEKWCIPDWMCLGN
modifications: cysteine pairing not given here; also: displayed as fusion to phage pIII
notes: as for B3
B10: Phage-2469 (peptide, not shown: large carriers)
peptide: VSKWCTPAWMCSAM
modifications: cysteine pairing not given here; also: displayed as fusion to phage pIII
notes: as for B3
B11: Phage-2413 (peptide)
peptide: LDMRCTPAWMCEGF
modifications: cysteine pairing not given here; also: displayed on bacteriophage by fusion to pIII
B12: Phage-2479 (peptide, not shown: large carriers)
peptide: GFPMCKPLWMCENL
modifications: cysteine pairing not given here; also: displayed on phage as fusion to pIII, pIII and linker sequence not given here
notes: as for B3
B13: Phage-2415 (peptide)
peptide: LWKWCTPPWMCEVS
modifications: cysteine pairing not given here; also: displayed on bacteriophage by fusion to pIII
B14: Phage-2418 (peptide)
peptide: FSKLCIPAWMCSEE
modifications: cysteine pairing not given here; also: displayed on bacteriophage by fusion to pIII
B15: Phage-2473 (peptide, not shown: large carriers)
peptide: PEHWCIPPWMCVVH
modifications: cysteine pairing not given here; also: displayed on phage as fusion to pIII, pIII and linker sequence not given here
notes: as for B3
B16: Phage-2475 (peptide, not shown: large carriers)
peptide: EHKWCTPLWMCEGL
modifications: cysteine pairing not given here; also: fused to phage pIII (clonal phage display)
notes: as for B3
B17: Phage-2468 (peptide, not shown: large carriers)
peptide: FEKWCIPAWMCEQV
modifications: cysteine pairing not given here; also: displayed as fusion to phage pIII
notes: as for B3
B18: Phage-2472 (peptide, not shown: large carriers)
peptide: FDKWCIPPWMCVGP
modifications: cysteine pairing not given here; also: displayed on phage as fusion to pIII, pIII and linker sequence not given here
notes: as for B3
B19: Phage-2412 (peptide)
peptide: GEKWCIPDWMCAAA
modifications: cysteine pairing not given here; also: displayed on bacteriophage by fusion to pIII
B20: Phage-2411 (peptide)
peptide: QAKWCIPQWMCESY
B21: Phage-2476 (peptide, not shown: large carriers)
peptide: YHNWCVPQWMCVGL
modifications: cysteine pairing not given here; also: displayed on phage as fusion to pIII, pIII and linker sequence not given here
notes: as for B3
B22: Phage-2414 (peptide)
peptide: VEKWCTPPWMCRFD
modifications: cysteine pairing not given here; also: displayed on bacteriophage by fusion to pIII
B23: Phage-2467 (peptide, not shown: large carriers)
peptide: GDKWCIPDWMCVQS
modifications: cysteine pairing not given here; also: displayed as fusion to phage pIII
notes: as for B3
B24: Phage-2477 (peptide, not shown: large carriers)
peptide: VEKWCIPQWMCSMD
modifications: cysteine pairing not given here; also: displayed on phage as fusion to pIII, pIII and linker sequence not given here
notes: as for B3
B25: Phage-2466 (peptide, not shown: large carriers)
peptide: VVKWCTPSWMCTGF
modifications: cysteine pairing not given here; also: displayed as fusion to phage pIII
notes: as for B3
B26: Phage-2480 (peptide, not shown: large carriers)
peptide: PFKWCTPAWMCEVH
modifications: cysteine pairing not given here; also: displayed on phage as fusion to pIII, pIII and linker sequence not given here
notes: as for B3
B27: Phage-2478 (peptide, not shown: large carriers)
peptide: EMIRCIPDWMCMSY
modifications: cysteine pairing not given here; also: displayed on phage as fusion to pIII, pIII and linker sequence not given here
notes: as for B3

How the values were obtained:
PSMA Fab (006 PSMA Fab) [1] = target: T1, PSMA Fab (006 PSMA Fab); assay: clonal phage ELISA on biotinylated PSMA Fab captured on neutravidin plates, anti-M13-HRP detection;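 also: crude clonal phage supernatants added to wells preincubated with PSMA antigen or with blocking buffer only (no wash between), briefly incubated, then washed before detecting bound phage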
T1 construct: In the phage ELISA the PSMA Fab was biotinylated and captured on neutravidin coated plates; also called Anti-PSMA Fab; anti-PSMA Fab
Experimental: (§1) Clonal phage were harvested as crude supernatants and screened via standard ELISAs. […] Prior to the addition of clonal phage. wells were incubated with blocking buffer and PSMA antigen or blocking buffer alone. Without washing or aspirating, clonal phage supernatants were then added to the wells and incubated for a short time. Wells were then washed followed by detection of bound phage using a horse radish conjugated anti-M13 antibody.

PSMA Fab (006 PSMA Fab) [2] = target: T1, PSMA Fab (006 PSMA Fab); assay: clonal phage ELISA on captured PSMA Fab, wells pre-incubated with PSMA antigen as competitor (column head not shown, assumed)
PSMA Fab [3] = target: T2, PSMA Fab (biotinylated (site not given)); assay: phage ELISA: clonal phage supernatant on biotinylated PSMA Fab captured on neutravidin plate, blocking buffer alone; anti-M13 HRP detection;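 also: crude clonal phage supernatants added to wells preincubated with blocking buffer, incubated briefly, bound phage detected with a horseradish-conjugated anti-M13 antibody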
T2 construct: Biotinylated PSMA Fab captured on neutravidin plates in the phage ELISA; also called Anti-PSMA Fab; 006 PSMA Fab

PSMA Fab [4] = target: T2, PSMA Fab; assay: phage ELISA on captured biotinylated PSMA Fab, wells pre-incubated with PSMA antigen (competitor: PSMA); anti-M13 HRP detection
Experimental: as §1

Binder	Phage binding ELISA signal, Anti-PSMA Fab (PSMA Fab (006 PSMA Fab) [1])	Phage binding ELISA signal, Anti-PSMA Fab with PSMA antigen (PSMA Fab (006 PSMA Fab) [2])	Phage binding ELISA signal, Anti-PSMA Fab (PSMA Fab [3])	Phage binding ELISA signal, Anti-PSMA Fab in presence of PSMA (PSMA Fab [4])
B1	1.35	0.0812		
B2	1.33	0.0772		
B3			1.24	0.0622
B4			1.24	0.0775
B5	1.33	0.0735		
B6	1.34	0.0667		
B7			1.23	0.0771
B8	1.34	0.0763		
B9			1.24	0.0809
B10			1.24	0.099
B11	1.34	0.0768		
B12			1.23	0.0667
B13	1.34	0.0864		
B14	1.34	0.0956		
B15			1.24	0.513
B16			1.23	0.09
B17			1.24	0.0596
B18			1.24	0.0689
B19	1.34	0.0769		
B20	1.35	0.0648		
B21			1.23	0.127
B22	1.34	0.074		
B23			1.24	0.0692
B24			1.23	0.0715
B25			1.24	0.0837
B26			1.23	0.0594
B27			1.23	0.0624
